Assay results published in the supplement of paper PMC12855868.

B1: library; numbered along this chain (parent)
chain: MAAAGGARLLRAASAVLGGPAGRWLHHAGSRAGSSGLLRNRGPGGSAEASRSLSVSARARSSSEDKITVHFINRDGETLTTKGKVGDSLLDVVVENNLDIDGFGACEGTLACSTCHLIFEDHIYEKLDAITDEENDMLDLAYGLTDRSRLGCQICLTKSMDNMTVRVPETVADARQSIDVGKTS

Variants of: B1
Assay: scaled log2 fold change in cell abundance, elesclomol vs control (0 = silent mean, 1 = nonsense mean) (scaled log2 ratio); higher = higher viability under elesclomol (loss of FDX1 cuproptosis function)
Details: glucose 10 mM
[1] = with ABC1 FDX1 KO, elesclomol 5 nM, 14 days
[2] = with HEK293T FDX1 KO, elesclomol 40 nM, 11 days
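Also: variant abundance is its share of total variant reads in each endpoint sample, from next-generation sequencing of the integrated ORF PCR-amplified out of genomic DNA.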

Variant	scaled log2 fold change [1]	scaled log2 fold change [2]
D136K	0.913	0.124
D136H	0.556	0.766
D136N	0.198	-0.651
D136M	0.136	-0.421
D136C	0.0368	0.938
D136A	0.243	-0.0274
D136S	0.133	0.338
D136I	0.422	-0.019
D136L	0.751	0.113
D136Q	0.344	0.87
D136Y	0.0478	-0.0361
D136T	0.611	0.431
D136E	0.196	0.183
D136F	0.493	-0.85
D136W	0.188	0.105
D136V	0.459	0.696
L138G	0.706	0.389
L138N	0.767	0.557
L138T	-0.0362	0.287
L138S	0.467	0.0871

Variant	scaled log2 fold change [1]	scaled log2 fold change [2]
L138V	-0.213	-0.414
L138Y	0.578	-0.246
L138Q	-0.00504	0.34
L138M	0.188	0.00846
L138K	0.41	-0.306
L138W	0.885	0.749
L138C	-0.108	0.251
L138F	0.0535	-0.0648
L138R	-0.0868	-0.131
L138H	0.199	0.223
L138A	0.519	-0.22
L138E	0.986	0.639
L138I	0.0896	0.0458
L138D	1.11	1.04
L138P	1.15	0.887
D128M	-0.149	-0.00382
D128F	-0.376	0.338
D128E	0.267	0.301
D128I	-0.0983	-0.34
D128C	0.113	0.174

Variant	scaled log2 fold change [1]	scaled log2 fold change [2]
D128K	-0.0506	-0.0961
D128Y	-0.45	0.0308
D128R	-1.26	-0.293
D128Q	-0.253	–
D128W	-0.0394	-0.406
D128S	-0.519	1.1
D128L	0.397	-0.761
D128P	0.196	–
D128V	0.419	-0.465
D128T	-0.378	–
D128A	-0.474	-0.104
D128N	-0.106	-0.13
D128H	0.277	–
D128G	0.0426	–
L140D	-0.319	-0.308
L140A	-0.069	-1.25
L140G	-0.344	0.395
L140E	0.271	–
L140C	-0.0723	-0.467
L140F	-0.344	0.78
